The target in this series is T1, CasEnd-12 (synthetic construct).
T1 chain: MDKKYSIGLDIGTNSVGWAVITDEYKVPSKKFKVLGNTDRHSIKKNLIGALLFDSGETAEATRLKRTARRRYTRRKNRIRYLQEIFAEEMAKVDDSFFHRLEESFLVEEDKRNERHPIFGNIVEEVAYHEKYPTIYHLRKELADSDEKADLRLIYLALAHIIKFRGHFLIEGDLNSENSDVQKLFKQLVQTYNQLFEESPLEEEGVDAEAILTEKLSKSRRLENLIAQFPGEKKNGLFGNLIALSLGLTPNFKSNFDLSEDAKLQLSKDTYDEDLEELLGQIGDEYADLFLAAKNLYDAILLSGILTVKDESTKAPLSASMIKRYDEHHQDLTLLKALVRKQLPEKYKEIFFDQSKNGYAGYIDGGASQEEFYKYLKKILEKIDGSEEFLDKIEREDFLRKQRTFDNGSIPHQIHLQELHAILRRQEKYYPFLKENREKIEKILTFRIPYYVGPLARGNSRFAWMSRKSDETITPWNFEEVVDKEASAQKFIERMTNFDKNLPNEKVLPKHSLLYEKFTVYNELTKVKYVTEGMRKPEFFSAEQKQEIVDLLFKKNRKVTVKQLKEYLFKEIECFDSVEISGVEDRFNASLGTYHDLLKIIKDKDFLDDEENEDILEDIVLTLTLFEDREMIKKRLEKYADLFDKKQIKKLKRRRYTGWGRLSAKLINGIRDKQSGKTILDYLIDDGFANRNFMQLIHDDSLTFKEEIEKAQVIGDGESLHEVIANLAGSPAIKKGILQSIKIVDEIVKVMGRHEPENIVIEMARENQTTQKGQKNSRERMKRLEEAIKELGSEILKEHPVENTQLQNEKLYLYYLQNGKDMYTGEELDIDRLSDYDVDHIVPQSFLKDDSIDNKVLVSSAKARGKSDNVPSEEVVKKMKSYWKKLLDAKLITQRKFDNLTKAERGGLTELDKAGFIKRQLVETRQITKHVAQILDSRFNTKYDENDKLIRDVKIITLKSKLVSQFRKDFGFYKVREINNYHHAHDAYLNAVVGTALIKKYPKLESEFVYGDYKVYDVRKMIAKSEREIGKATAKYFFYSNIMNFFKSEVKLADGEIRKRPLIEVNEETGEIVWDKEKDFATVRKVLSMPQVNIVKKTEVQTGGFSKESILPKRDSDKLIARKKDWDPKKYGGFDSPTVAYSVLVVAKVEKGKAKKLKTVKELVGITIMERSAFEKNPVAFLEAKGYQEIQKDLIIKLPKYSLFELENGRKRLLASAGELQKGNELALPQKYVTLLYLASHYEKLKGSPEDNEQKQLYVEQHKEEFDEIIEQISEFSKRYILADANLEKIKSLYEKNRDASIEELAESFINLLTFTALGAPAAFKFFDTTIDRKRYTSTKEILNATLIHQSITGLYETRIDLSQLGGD
Description: cell_activity; +++; HEK293T; PAM not stated. Put shortly:
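BFP-to-GFP conversion via reverse transcriptase fusion with each Cas endonuclease plus template RNA: 200 ng of each plasmid nucleofected into 250,000 BFP-expressing HEK293T cells (program DS-150). Percent GFP+ cells by flow cytometry at day 4 measured editing.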

Our source for the activity values is patent US20250092426, “CAS ENDONUCLEASES AND RELATED METHODS” (Flagship Pioneering Innovations VII, LLC, published 2025).

B1: BFP-to-GFP template RNA ; BFP reporter protospacer (ssRNA ; dsDNA)
RNA: GCCGAAGCACUGCACGCCGUGUUUUAGAGCUAGAAAUAGCAAGUUAAAAUAAGGCUAGUCCGUUAUCAACUUGAAAAAGUGGCACCGAGUCGGUGCACCCUGACGUACGGCGUGCAGUGCUU
DNA 1: GCCGAAGCACTGCACGCCGT
DNA 2: ACGGCGTGCAGTGCTTCGGC
With B1, the activity is ≥ 100 % of reference.
